In the assay the target is Thermoplasma acidophilum 20S proteasome α-subunit (Thermoplasma acidophilum, UniProt P25156 1-233). As to the kind of experiment: cryo-EM structure.
Thermoplasma acidophilum 20S proteasome α-subunit, sequence (P25156 whole entry): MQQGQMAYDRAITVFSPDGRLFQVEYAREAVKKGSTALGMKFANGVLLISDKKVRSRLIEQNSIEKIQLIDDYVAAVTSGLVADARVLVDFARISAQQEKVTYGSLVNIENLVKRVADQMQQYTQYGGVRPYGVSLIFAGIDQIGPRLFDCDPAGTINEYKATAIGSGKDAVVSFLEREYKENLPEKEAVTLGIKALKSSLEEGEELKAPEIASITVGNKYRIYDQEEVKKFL

B1: Thermoplasma acidophilum 20S proteasome β-subunit (natural protein, UniProt P28061 9-211, looked up)
chain: TTTVGITLKDAVIMATERRVTMENFIMHKNGKKLFQIDTYTGMTIAGLVGDAQVLVRYMKAELELYRLQRRVNMPIEAVATLLSNMLNQVKYMPYMVQLLVGGIDTAPHVFSIDAAGGSVEDIYASTGSGSPFVYGVLESQYSEKMTVDEGVDLVIRAISAAKQRDSASGGMIDVAVITRKDGYVQLPTDQIESRIRKLGLIL
With B1, the binding result was “binds”.

Values taken from article PMC5679434 (Nature methods, 2017).
